Biological target: PD-1 (PDCD1, recombinant full length) (Homo sapiens, UniProt Q15116 Q15116:25-288)
Assay: BLI; per-concentration fits 9.90, 4.17, 1.34 nM; phosphate pH 7.4, 137 mM NaCl, 2.7 mM KCl, 0.1% BSA, 0.01% Tween-20, 25 C
Conditions: tags: ACROBiosystems, produced in HEK293; label: 5' biotin (BLI) or FAM (flow); predicted hairpin-bulge / possible G-quadruplex
Method: Specific PD-1 5′ biotinylated DNA aptamer (Midland Oligos) were prepared in the concentration range of (10 nM and 100 nM). […] Octet Red analysis software (ForteBio) was used to analyze the sensorgram data.

Chain of PD-1 (PDCD1, recombinant full length) (Q15116 25-288, one chain of several): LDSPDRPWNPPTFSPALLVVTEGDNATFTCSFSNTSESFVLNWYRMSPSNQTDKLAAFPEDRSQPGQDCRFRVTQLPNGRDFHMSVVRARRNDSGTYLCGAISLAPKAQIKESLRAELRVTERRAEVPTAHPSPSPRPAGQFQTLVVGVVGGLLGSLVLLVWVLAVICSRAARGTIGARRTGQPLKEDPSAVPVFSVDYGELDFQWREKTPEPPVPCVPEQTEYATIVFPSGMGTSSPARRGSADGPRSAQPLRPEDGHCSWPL

B1: fpf2 (10-150-373) (ssDNA)
DNA: CCGTATACATACCTGATAGCGTATGCGAGGAAGTGGGCTTGGTGTGGTGGGCTTCTCTCAGTAGGTGCATAAGCGCATGCATGC
binding result: binds

Reference: patent US20190233824A1, “PD-1 SPECIFIC APTAMERS” (THE METHODIST HOSPITAL SYSTEM, published 2019)
